Laboratory results reported in US20250352624A1, “SUPEROXIDE DISMUTASE AND USES THEREOF FOR PREVENTING OR TREATING DRY EYE SYNDROME” (GENOFOCUS, INC., priority 2021, published 2025).

Tests used:
Type in all cases: in vivo
[1] = tested on: experimental dry eye (EDE)-induced C57BL/6 mouse model; test: Inflammatory cytokines by Luminex multiplex immunobead assay
Procedure: (§1) To induce experimental dry eye, 7- to 8-week-old C57BL/6 mice (purchased from Damool Science) were injected subcutaneously with scopolamine hydrochloride at 0.5 mg/0.2 ml three times a day under exposure to a ventilating device for 18 hours a day. The humidity was maintained at 30%, and the temperature was maintained at 25° C. The C57BL/6 mice were classified into 7 groups, depending on concentrations of the oral drug to be administered, as shown in Table 6.
In both eyes of all mice, at baseline, day 5, and day 10, tear volume and tear film break-up time were measured and corneal fluorescent staining score was examined. The mice were then sacrificed and tissue analysis was performed. Each group consisted of 6 animals.
Conjunctival tissue was excised and collected from 6 eyes of 3 animals in each group, and then immersed in lysis buffer containing protease inhibitors for 30 minutes. Subsequently, the resultant was centrifuged and stored −80° C. Then, the concentrations of IFN-γ, IL-1Bβand TNF-α in the cornea and conjunctiva were analyzed using the Luminex multiplex immunobead assay.

[2] = tested on: experimental dry eye (EDE)-induced C57BL/6 mouse model; test: CD4+IFN-γ+ T cells by flow cytometry
Procedure: as §1
(§2) After inducing experimental dry eye in the experimental mice, the drugs prepared in Example 3 were orally administered at 2 μL per dose once a day to the treatment groups (administered at 13:30 every day). In both eyes of all mice, at baseline, day 5, and day 10, tear volume and tear film break-up time were measured and corneal fluorescent staining score was examined. The mice were then sacrificed and tissue analysis was performed. Each group consisted of 6 animals.
The cornea, conjunctiva, and lacrimal gland were excised, sectioned with scissors, and then shaken with 0.5 mg/mL of collagenase type D (manufactured by Roche Applied Science, Indianapolis, IN, USA) at 37° C. for 60 minutes. The tissue was ground and then allowed to pass through a cell strainer, followed by centrifugation. The number of CD4+IFN-γ+T cells was calculated by performing flow cytometry with fluorescein-conjugated anti-CD4 antibody and phycoerythrin-conjugated anti-IFN-γ antibody, and the number of DCF-DA cells was calculated using the CM-H2DCFDA kit (manufactured by Thermo Fisher Scientific, Waltham, MA, USA).

[3] = tested on: experimental dry eye (EDE)-induced C57BL/6 mouse model; test: Goblet cells in conjunctiva (PAS staining histology)
Procedure: as §1, §2
The eye and accessory tissues were excised from one eye of one animal in each group, fixed in 4% paraformaldehyde, embedded in paraffin, and then PAS staining was performed on two cross-sectional pieces of the tissue. In each piece, the density of goblet cells in the conjunctiva was calculated using a microscope and image analysis software.

[4] = conjunctiva, 2.5 mg/kg oral once a day
[5] = conjunctiva, 5 mg/kg oral once a day
[6] = conjunctiva, 10 mg/kg oral once a day
[7] = cornea and conjunctiva, CsA and oral SodA2 groups
[8] = cornea, 2.5 mg/kg oral once a day
[9] = cornea, 5 mg/kg oral once a day
[10] = cornea, 10 mg/kg oral once a day

B1: SodA2: variant Mn-SOD of Bacillus amyloliquefaciens GF423 sodA, Asn73 and Asn136 replaced with Asp, SEQ ID NO: 4; given orally shellac-coated, mixed with dextrin (protein, listed as Bacillus amyloliquefaciens)
chain: MAYKLPELPYAYDALEPHIDKETMTIHHTKHHNTYVTNLNKAIEGSALAEKSVDELVADLNAVPEDIRTAVRDDGGGHANHSLFWTLLSPNGGGEPTGELAEEIKSTFGSFDQFKEKFAAAAAGRFGSGWAWLVVDDGKLEITSTPNQDSPLSEGKTPVLGLDVWEHAYYLNYQNRRPDYISAFWNVVNWDEVARLYSEAK
modifications: shellac coating; dextrin mixture
IFN-γ [1, 4]: 21.27 ± 17.49 pg/mL
IL-1β [1, 4]: 21.5 ± 9.26 pg/mL
TNF-α [1, 4]: 22.6 ± 7.72 pg/mL
IFN-γ [1, 5]: 18.28 ± 11.75 pg/mL
IL-1β [1, 5]: 19.0 ± 7.17 pg/mL
TNF-α [1, 5]: 18.8 ± 11.6 pg/mL
IFN-γ [1, 6]: 15.53 ± 11.43 pg/mL
IL-1β [1, 6]: 16.3 ± 9.12 pg/mL
TNF-α [1, 6]: 22.5 ± 11.4 pg/mL
concentrations of IFN-γ, IL-1β, and TNF-α as compared with the EDE and vehicle groups [1, 7]: tendency of decreased concentrations
IFN-γ [1, 8]: 10.77 ± 8.30 pg/mL
IL-1β [1, 8]: 15.45 ± 8.93 pg/mL
TNF-α [1, 8]: 22.6 ± 7.72 pg/mL
IFN-γ [1, 9]: 9.80 ± 6.11 pg/mL
IL-1β [1, 9]: 13.17 ± 2.26 pg/mL
TNF-α [1, 9]: 18.8 ± 11.6 pg/mL
IFN-γ [1, 10]: 7.89 ± 7.90 pg/mL
IL-1β [1, 10]: 8.69 ± 4.18 pg/mL
TNF-α [1, 10]: 22.5 ± 11.4 pg/mL
inflammatory cytokines as compared with CsA ([1]; oral, all doses): tended to decrease inflammatory cytokines more than CsA
proportion of CD4+IFN-γ+T cells [2, 4]: 21.00±0.63%
proportion of CD4+IFN-γ+T cells [2, 5]: 22.87±2.47%
proportion of CD4+IFN-γ+T cells [2, 6]: 25.83±0.27%
proportion of CD4+IFN-γ+T cells as compared with the EDE and vehicle groups [2, 7]: significant decrease
proportion of CD4+IFN-γ+T cells as compared with the 0.05% CsA group ([2]; cornea, 2.5 mg/kg oral): significantly lower
proportion of CD4+IFN-γ+T cells [2, 8]: 21.18±0.15%
proportion of CD4+IFN-γ+T cells [2, 9]: 23.87±0.17%
proportion of CD4+IFN-γ+T cells [2, 10]: 30.24±1.33%
number of goblet cells in the conjunctiva ([3]; 2.5 mg/kg oral once a day): 27.9±6.9 cells/100 μm
number of goblet cells as compared with the 0.05% CsA group ([3]; 5 mg/kg oral): more significant increase
number of goblet cells in the conjunctiva ([3]; 5 mg/kg oral once a day): 35.8±10.2 cells/100 μm
number of goblet cells in the conjunctiva ([3]; 10 mg/kg oral once a day): 32.2±3.9 cells/100 μm
number of goblet cells in the conjunctiva, change in treatment groups ([3]; all treatment groups: 0.05% CsA, SodA2 2.5, 5 and 10 mg/kg oral): significant increase
